Data as given in paper PMC4538827.
Values joined by “and” are separate entries in the source; they are usually repeats but may differ in a detail not shown here. Identical values can stand only once.

Experiments:
[1] = target: T1, σNS (sigma NS) (Avian reovirus strain 1733) (UniProt W8NR44); experiment: FCS; details: FA: 10 mM HEPES-NaOH pH 7.5, 150 mM NaCl, 21 C, 1 nM RNA, 30 min; smFRET in same buffer at 37 C; SEC 25 mM HEPES-Na pH 7.8, 150 mM NaCl, 4 C
T1 sequence: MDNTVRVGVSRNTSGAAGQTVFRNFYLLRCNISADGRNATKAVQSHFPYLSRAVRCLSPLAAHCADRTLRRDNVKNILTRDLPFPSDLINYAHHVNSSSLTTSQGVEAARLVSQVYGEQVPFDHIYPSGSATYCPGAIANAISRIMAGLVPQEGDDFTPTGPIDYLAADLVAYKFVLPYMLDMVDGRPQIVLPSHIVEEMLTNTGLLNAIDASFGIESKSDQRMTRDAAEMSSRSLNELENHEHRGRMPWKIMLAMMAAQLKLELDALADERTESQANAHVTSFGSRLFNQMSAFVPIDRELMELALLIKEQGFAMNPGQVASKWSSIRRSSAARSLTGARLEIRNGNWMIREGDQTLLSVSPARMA

[2] = target: avian reovirus σNS (ARV strain 1733), full-length recombinant (avian reovirus strain 1733); experiment: native MS
[3] = target: avian reovirus σNS (ARV strain 1733), full-length recombinant (avian reovirus strain 1733); experiment: native MS; remark: listed apart in the source
[4] = target: avian reovirus σNS (ARV strain 1733), full-length recombinant (avian reovirus strain 1733); experiment: SAXS
[5] = target: avian reovirus σNS (ARV strain 1733), full-length recombinant (avian reovirus strain 1733); experiment: AUC
[6] = target: T1, σNS (sigma NS) (Avian reovirus strain 1733); experiment: ensemble FRET; details: FA: 10 mM HEPES-NaOH pH 7.5, 150 mM NaCl, 21 C, 1 nM RNA, 30 min; smFRET in same buffer at 37 C; SEC 25 mM HEPES-Na pH 7.8, 150 mM NaCl, 4 C
[7] = target: T1, σNS (sigma NS) (Avian reovirus strain 1733); experiment: fluorescence anisotropy; details: FA: 10 mM HEPES-NaOH pH 7.5, 150 mM NaCl, 21 C, 1 nM RNA, 30 min; smFRET in same buffer at 37 C; SEC 25 mM HEPES-Na pH 7.8, 150 mM NaCl, 4 C
[8] = target: T1, σNS (sigma NS) (Avian reovirus strain 1733); experiment: fluorescence anisotropy; details: FA: 10 mM HEPES-NaOH pH 7.5, 150 mM NaCl, 21 C, 1 nM RNA, 30 min; smFRET in same buffer at 37 C; SEC 25 mM HEPES-Na pH 7.8, 150 mM NaCl, 4 C; remark: listed apart in the source

| Substance | Kd [1] [nM] | Kd [7] [nM] | Kd [8] [nM] | other results |
| --- | --- | --- | --- | --- |
| MS2 RNA (3569 nt) | 250 | – | – | – |
| avian reovirus σNS (ARV strain 1733), full-length recombinant (natural protein) | – | – | – | stoichiometry N [2]: 6 and 2 and 4; stoichiometry N [3]: 8; stoichiometry N [4]: 6; stoichiometry N [5]: 6 |
| ATAGGTATAACAGTTAACGTATGCTATACGCTAATAGCATACGTTT [46-nt stem-loop] | – | 333 | – | Kd [6]: 1100 nM |
| GACCUAUUCUCUUUUUCUCU [20-nt RNA] | 39.5 | 26.5 | 35 | – |
| GGGAGACCUAUUCUCUUUUUCUCUCCUUUUCCCCCCUGUUGCUUUAUUUUCCUUCUUUGCCUUUUUCUCUCUUUUUUUUUCUUUUUUCCCUUUCUGCUUUCCUCCCCUAUUCUCCCCUCUU [120-nt RNA] | – | 25 | – | – |
| 20-nt ssDNA | – | – | 24.5 | – |
